This note sets out measurements from paper PMC6599478.

Experiment [1] addresses HIV-1 MN.3 Env with the glycan mutation N332A, on pseudovirus (HIV-1 (clade B, MN.3)) (UniProt P05877).
The target in experiment [2] is HIV-1 clade B Tier 1A chronic virus MN.3 gp120 Env (HIV-1 (clade B, MN.3)) (UniProt P05877).

“recombinant full length Tenascin-C, large isoform (TNC-L), P24821 23-2201” had an IC50 of neutralisation of HIV-1 MN.3 N332A pseudovirus, TZM-bl reporter cells in experiment [1] of 113 µg/mL. “recombinant full length Tenascin-C, large isoform (TNC-L) (from UniProt P24821 23-2201) (natural protein)”: in experiment [2], the IC50 of neutralisation of wild type HIV-1 MN.3 virus, TZM-bl reporter cells stood at 31 µg/mL.
